Assays:
[1] = tested on: high fat diet-induced obese (DIO) mice; experiment: OGTT after hydrodynamic injection (HDI) of vector encoding PIP/Sval1 in high fat DIO mice; assay type: in vivo
Description: To ascertain if this newly implicated factor can replicate some of the benefits shown by the RYGB surgery, a hydrodynamic gene delivery method was developed in-house. We tested the effect of delivery of DNA encoding the secreted factor PIP in vivo. The Fc-fusion proteins of PIP was encoded in pLEV113 vector, which was delivered via hydrodynamic injection (HDI) in high fat diet-induced obese (DIO) mice.
Mice, that were maintained for 12 weeks on high fat diet (60% Kcal fat, Research Diets), were sorted into groups based on their body weights and fed blood glucose levels. On the day of HDI of the PIP vector or control pLEV113 vector (30 ug/mouse), mice were placed in a restrainer and tails were cleaned with 70% alcohol. A 27-G butterfly needle connected with a 3 ml syringe was inserted into the tail vain, with bevel facing up, and pulled backwards on the syringe plunger to ensure blood was drawn into the syringe. The desired volumes (7% of body weight, up to a total of 3.2 mL) of DNA construct solution was injected over a short period (5-10 seconds) by hand. The needle was then withdrawn and bleeding stopped by adding pressure to the injection site with gauze.
After the HDI procedure, mice were monitored twice daily in the first 48 hours and then once per day for a week. Basal fed blood glucose levels in mice were measured at day 14, and blood samples were collected to obtain plasma for measuring Fc level or for endogenous protein levels in the future.
At day 16 post-HDI an OGTT was conducted to evaluate glucose handling and beta cell function. Basal and glucose-stimulated glucose and insulin levels were measured over 2-3 hours during the OGTT.
At day 30, basal blood glucose levels, changes in weight or food intake, and another functional tests, such as an OGTT, were performed for a 2nd time.
At day 40 post-HDI, the study was terminated by euthanization of mice and plasma collected for key metabolic biomarkers.

[2] = tested on: diabetic non-human primates; conditions: Kharitonenkov et al. 2007; cited from earlier work

B1: human PIP: human prolactin-inducible protein (GenBank NP_002643), here delivered via HDI of vector (protein, UniProt P12273 29-146, looked up)
Prolactin-inducible protein: QDNTRKIIIKNFDIPKSVRPNDEVTAVLAVQTELKECMVVKTYLISSIPLQGAFNYKYTACLCDDNPKTFYWDFYTNRTVQIAAVVDVIRELGICPDDAAVIPIKNNRFYTIEILKVE
beta cell function compared to mouse Sval1 ([1]; HDI administration in DIO mice): improved beta cell function similar to that of mouse Sval1

B2: FGF-21: Fibroblast Growth factor 21, an endocrine hormone; proposed fusion partner (protein)
chain: HPIPDSSPLLQFGGQVRQRYLYTDDAQQTEAHLEIREDGTVGGAADQSPESLLQLKALKPGVIQILGVKTSRFLCQRPDGALYGSLHFDPEACSFRELLLEDGYNVYQSEAHGLPLHLPGNKSPHRDPAPRGPARFLPLPGLPPALPEPPGILAPQPPDVGSSDPLSMVGPSQGRSPSYAS
increase in HDL cholesterol [2]: ~80%

B3: mouse PIP: mouse prolactin-inducible protein, delivered as DNA in pLEV113 vector via hydrodynamic injection (full length native and Fc-tagged tested) (protein, UniProt P02816 27-146, looked up)
Prolactin-inducible protein …: QDDENVRKPLLIEIDVPSTAQENQEITVQVTVETQYRECMVIKAYLVSNEPMEGAFNYVQTRCLCNDHPIRFFWDIIITRTVTFATVIDIVREKNICPNDMAVVPITANRYYTYNTVRMN
reduction in glucose area under the curve during an OGTT ([1]; hydrodynamic gene delivery, high fat DIO mice, glucose AUC 0-120 min, compared to vector control group): 30% | increase in insulin area under the curve (GSIS) during an OGTT ([1]; hydrodynamic gene delivery, high fat DIO mice, insulin AUC 0-30 min, compared to vector control group): 72%
